Measurements taken from patent EP4613780A1 (Adlai Nortye Biopharma Co., Ltd., dated 2025).

Key:
[1] = target: PD-L1 on TCR activator PD-L1-CHO cells (BPS bioscience) (UniProt Q9NZQ7 19-290, limits assumed); assay: cell-based or functional assay
[2] = target: T1, human CTLA4 protein (Acro, CT4-H52H9) (human, UniProt P16410 36-161); assay: ELISA, coated human CTLA4
T1 construct: coated on the ELISA plate; also called human CTLA4 antigen
T1 sequence (looked up): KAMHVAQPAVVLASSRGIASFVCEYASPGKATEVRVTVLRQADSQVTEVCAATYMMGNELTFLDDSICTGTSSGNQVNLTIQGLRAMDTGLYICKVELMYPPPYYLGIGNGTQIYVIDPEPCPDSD

[3] = target: T2, human CD28 protein (Acro, CD8-H525a) (human, UniProt P10747 19-152); assay: ELISA, coated human CD28
T2 construct: coated on the ELISA plate; also called human CD28 antigen
T2 sequence (P10747 19-152 limits assumed): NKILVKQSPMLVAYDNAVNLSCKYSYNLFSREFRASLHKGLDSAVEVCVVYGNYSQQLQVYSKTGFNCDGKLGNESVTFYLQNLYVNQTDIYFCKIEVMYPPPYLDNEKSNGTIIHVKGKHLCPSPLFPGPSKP

[4] = target: hPD-L1 (Octet R8 analyte) (human, UniProt Q9NZQ7 19-238, limits assumed); assay: BLI Octet R8, Protein A probe
Chain of hPD-L1 (Octet R8 analyte) (Q9NZQ7 19-238 limits assumed): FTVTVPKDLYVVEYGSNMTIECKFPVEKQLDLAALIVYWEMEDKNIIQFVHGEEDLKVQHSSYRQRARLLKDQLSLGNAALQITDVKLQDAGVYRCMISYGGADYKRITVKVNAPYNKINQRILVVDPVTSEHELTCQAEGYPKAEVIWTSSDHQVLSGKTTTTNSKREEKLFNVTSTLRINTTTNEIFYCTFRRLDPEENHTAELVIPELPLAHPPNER

[5] = target: T3, hCTLA-4 (Octet R8 analyte) (human, UniProt P16410 36-161, limits assumed); assay: BLI Octet R8, Protein A probe
T3 sequence (looked up): T1 sequence (looked up)

hCD28 (Octet R8 analyte) = hCD28 (Octet R8 analyte) (human, UniProt P10747 19-152, limits assumed); assay: BLI Octet R8, Protein A probe
Chain of hCD28 (Octet R8 analyte) (P10747 19-152 limits assumed): as the sequence (P10747 19-152 limits assumed) above

[6] = target: T4, human PD-L1 protein (Acro, PD1-H5258) (human, UniProt Q9NZQ7 19-238); assay: ELISA, coated human PD-L1
T4 construct: coated on the ELISA plate; also called human PDL1 antigen
T4 sequence (Q9NZQ7 19-238 limits assumed): as the sequence (Q9NZQ7 19-238 limits assumed) above

Chain of PD-L1 on TCR activator PD-L1-CHO cells (BPS bioscience) (Q9NZQ7 19-290 limits assumed): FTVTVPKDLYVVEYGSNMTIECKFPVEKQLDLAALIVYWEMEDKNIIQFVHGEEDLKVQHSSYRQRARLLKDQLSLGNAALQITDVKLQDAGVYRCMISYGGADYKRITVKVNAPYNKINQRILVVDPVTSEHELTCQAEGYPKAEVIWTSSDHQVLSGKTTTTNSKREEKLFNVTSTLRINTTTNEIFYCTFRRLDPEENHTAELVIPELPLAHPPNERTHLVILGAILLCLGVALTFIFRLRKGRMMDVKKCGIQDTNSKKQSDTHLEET

- Jurkat-NFAT-Luc/CHO-PDL1 EC50 [1]: 0.09 nM
- Top induction relative to 10nM sugemalimab [1]: 100%
- binding result [2]: no binding
- binding result [3]: no binding
- Kd [4]: 0.581 nM
- binding result [5]: no binding (tested: 50nM)
- binding result (hCD28 (Octet R8 analyte)): no binding (tested: 50nM)
- EC50 [6]: 0.0767 nM
B1: antibody Abs-16 (sugemalimab) (antibody, human IgG4 S228P, lambda, V domains shown)
VH: EVQLLESGGGLVQPGGSLRLSCAASGFTFSSYAMSWVRQAPGKGLEWVSGISGSGGFTYYADSVKGRFTISRDNSKNTLYLQMNSLRAEDTAVYYCAKPPRGYNYGPFDYWGQGTLVTVSS
VL: SYVLTQPPSVSVAPGQTARITCGGNNIGSKSVHWYQQKPGQAPVLVVYDDSDRPSGIPERFSGSNSGNTATLTISRVEAGDEADYYCQVWDSSSDHVVFGGGTKLTVLG
notes: anti-PD-L1 control antibody; also called Sugemalimab (CS1001)
